How the values were obtained:
Test in all cases: flow cytometry on cells
[1] = biological target: EI2.4.6 (human) (UniProt P02751)
[2] = biological target: EI1.4.1 (human) (UniProt P02751)
[3] = biological target: E6.2.10 (human) (UniProt P02751)

EGFR mutant 404SG (from UniProt P00533 25-1210) (receptor)
Kd [1]: 2.9 nM | Kd [2]: 0.85 nM | Kd [3]: 0.96 nM

Reference: article PMC3927142
